Assay results reported in PMC13470446.

Biological target: microtubule polymers
Settings: domain or fragment; chains chain; Polymerised alpha/beta-tubulin heterodimers (one repeat given). Source is not printed (assay 'as previously described' in a cited paper); commercial mammalian brain tubulin is assumed, porcine taken as likeliest (bovine possible). Brain tubulin is an isotype mixture with heterogeneous PTMs (acetyl-Lys40, detyrosination, polyglutamylation); TUBA1B and the pig beta chain are representatives only. GT; modification not given

B1: Smc5 hinge domain (residues 215–885), Q08204 215-885 (protein)
chain: LRELQGNEQSLQKDLDFKKAKIVHLRQESDKLRKSVESLRDFQNKKGEIELHSQLLPYVKVKDHKEKLNIYKEEYERAKANLRAILKDKKPFANTKKTLENQVEELTEKCSLKTDEFLKAKEKINEIFEKLNTIRDEVIKKKNQNEYYRGRTKKLQATIISTKEDFLRSQEILAQTHLPEKSVFEDIDIKRKEIINKEGEIRDLISEIDAKANAINHEMRSIQRQAESKTKSLTTTDKIGILNQDQDLKEVRDAVLMVREHPEMKDKILEPPIMTVSAINAQFAAYLAQCVDYNTSKALTVVDSDSYKLFANPILDKFKVNLRELSSADTTPPVPAETVRDLGFEGYLSDFITGDKRVMKMLCQTSKIHTIPVSRRELTPAQIKKLITPRPNGKILFKRIIHGNRLVDIKQSAYGSKQVFPTDVSIKQTNFYQGSIMSNEQKIRIENEIINLKNEYNDRKSTLDALSNQKSGYRHELSELASKNDDINREAHQLNEIRKKYTMRKSTIETLREKLDQLKREARKDVSQKIKDIDDQIQQLLLKQRHLLSKMASSMKSLKNCQKELISTQILQFEAQNMDVSMNDVIGFFNEREADLKSQYEDKKKFVKEMRDTPEFQSWMREIRSYDQDTKEKLNKVAEKYEEEGNFNLSFVQDVLDKLESEIAMVNHDES
Question: With B1 as the binder, how does the Kd read?
Answer: 690 nM
